Laboratory results: the DeepSol protein solubility set

Assay: soluble on expression in E. coli; label from the status in PepcDB or PDB records

| Sequence | soluble on expression in E. coli |
| --- | --- |
| GPGSMRSAQLPSKLSSAAGSCKHWVVSVPNSSESYRCFCSLIDRALQPGTCHPYSVRFRLEHLLPADWSLLLGWCRRLTSCGGSFTYTSPGDISEQTESVGAVDDSEGHPAVVNAAFMHVVERCHGDFVPNNMIYHELQRRYTVYAPASPPPPEGPEDFTSFLGALQDSVCDGCLASLSEGDGNVGEDPLASQVPSLEATKHNQKVLGVGAAASMESEAHRQQGELLFNFFPHRVVVSDGIPCHSTHFVVMVNLKPVVPWHLMVVPIRCVGTLSALSAAEMEDLGHMIHLTISVLSHVLVKPAVTGTGDTSSNGGSRVERGCSPHSIGSPVPASVVGGGGFSIAIQQGELAGQTVPHLHVHVIPFDPRGKLAGEPEDEEQQRRQPPRTGAQMRKETEFLRPHFVRLANEKNMRGICATCG | not soluble |
| ASEKVGMNLVTAQGVGQSIGTVVIDETEGGLKFTPHLKALPPGEHGFHIHANGSCQPAIKDGQAVAAEAAGGHLDPQNTGKHEGPEGQGHLGDLPVLVVNNDGIATEPVTAPRLKSLDEVKDKALMIHVGGDNMSDQPKPLGGGGTRYACGVIK | soluble |
| MSKNIGLNAIEMSYLRQSLSLSAAQVGQLTNHSEAEVLAWENAETQAPELAQKKLLDIDDIIEMQVLNTTDGIEALFKKEPKRHLAFVVYPTQAIYTQYNPEFLSSLPLTELYNTAAWRIKKECKLVLEVDVSLINLNVEAYKAYREQNGLSESRESRAKWAATQL | soluble |
| MGHHHHHHSHMFSEECIMDVIGCLEYDPALSQPRKHREFLTKTAKFKEVIPISDPELKQKIHQTYRVQYIQDMVLPTPSVFEENMLSTLHSFIFFNKVEIVGMLQEDEKFLTDLFAQLTDEATDEEKRQELVNFLKEFCAFSQTLQPQNRDAFFKTLSNMGILPALEVILGMDDTQVRSAATDIFSYLVEYNPSMVREFVMQEAQQNDDVSKKLTEQKITSKVNIICTNSKYLYIGSYNCFYYSF | soluble |
| MGSDKIHHHHHHMNYLKLKQDVQAGRVAPVYFMYGTELFLMEDLIQDILSVTLSDEERDMNVSSYSLTDVPIEAALEEAETVPFFGSKRVVILKDAALFTSQKLDVEHDVKRLEQYILNPVPETVLLIMAPYEKLDERKKITKLIKKESLVLEAKPLDEGEAKAWLSSLASELQVEMDEKAIETLLGMTGLRLTQLASEMNKLALYVGEGGIIRSEDVTLLVAKTLDQNIFDLIDFAINQRTHQALSLYHELLKQKEEPLKLLALLTRQFRIMYQVKELGRRGYTPNQMAKPLKIHPYVAKLAGKKAASMSDQLLYSLIEKAADTEFAIKSGKVDKVLALELFLLTMGSRESVG | not soluble |
| MGFSKKSQFEGGLESDGKKWVIAGISIRASLKPVKTKLRAPPEIVTEVEEDCYNEEEECSTTPTAKETKIPELLECPPAPRKRRPALKCRSNVVREFFTPPSDLETVFLRRR | not soluble |
| MMPTEYPATAEESVDVITDALLTASRLLVAISAHSIAQVDENITIPQFRTLVILSNHGPINLATLATLLGVQPSATGRMVDRLVGAELIDRLPHPTSRRELLAALTKRGRDVVRQVTEHRRTEIARIVEQMAPAERHGLVRALTAFTEAGGEPDARYEIE | soluble |
| MNTANFSAQQLQAERLLLLPSYILLKEGLVQDQAILVENGIFQDIGTHVELTKKYPDIVPVKLQDQLIMPGMIDGHHHLTQSFAKSLAYGEPSEIFKRIWVPLESNLNEQFVYLCTKLAALESLRGGFTTVCDAGTRSEIGMQLMVRALEETGLRCVLSLICNDGRAHSTLELRQNILENAQIFIKSYKQHKNVHPSLAISIPEVASDDMLYEVSKLCANSNIIFQVHVNEHLASVERSIIQQGMRPLEHLAKVGALGPQTLIAHATMLTPSELLLLQRTDTAVSYNPVASQWKGNAVASAHLMHELNIRFALGTDATRADGFRLLDAAEATQKLIFGIPTGDCSTGGGWMWLDHATTAGAEAVGLSQLTGSISIGKQADFLIIDLDTPEFCTSQDITWDMVRLCQRDQIQAVFVGGRICLWQGWPLDWDAKELMCRMKVLTKKAIEASPIQKLHPTAEQHRQLHGQTSQQQSVHI | not soluble |
| MGSDKIHHHHHHMNEAQQLQQMQPLLYKQLQKSFEHGRLAHAYLFEGDTGTGKQEFGLWMAKHVFCTNLVNQQPCNECHNCVRINENEHPDVLRIAPDGQTIKVNQIRELKAEFSKSGVETAKKVFLIQEADKMSTGAANSLLKFLEEPEGQILAILETTSLSRILPTIQSRCQTLHFQPLVKKTLIDRLIKQGIGEKTATLLAELTNSFEKAVEISQDEWFNEAREIILQWFNYLKSNDLQAFIYVQKKMVKVFKEKEQQALSFDLLMVYYRQLLEESVATQQAKKVTEEQAERLALILKARQKWTANVSWQNVCEQLVIQMIHPKS | not soluble |
| GPLGSYGDAIPEVKAILEAKNEEELVTFTSRWSAEERKELRTQFQDTTGLEFIAFLKKCIKNGPYEDVMALGWDCNISARVNVIKKAMKNVNDFRAIHDVVLIATPDERLKLAQAYKEKTGNDLLQDFVDQIPLTSAASYLCHLAIRENRTPRGSVASDAEVLKHNLIDADEPDHEAVVRLIITSTADEYKEINHRFEVLTGKSVQEAIETRYADKENARGLCIAHYYNLAPARAVAYAFHSAVETQNDDMAYEQAARITGLFHDLHKFAWVHYACWGVMRDDILSRFQSKEANKVNFRDACLMFWKLAK | soluble |
| MGSDKIHHHHHHMVATLDDTKRNAIAVKLASIKALQQLVIENEQSLLREGLDAEIADRIRNFLKDDEKNLGVLETVIGQYGIQAEPKKNVTQFIEKARELFKGSELSLYEKVSQHELLKHQLVMSGLIVHKAAQKVGADVLLAIGPLNTINFENRAHQEQLKGILEILGVREFTGQDADQGIWARVQDAMAAVSGVVGSAVTQTSDKSDLNIQDVIRLDHNKVNTLFTELLQSDNPQKIQEYFGQIYKDLTAHAEAEEEVVYPRVRPFYGQDNTQELFDEQAEMKRVLEQIKAISPSSSEFKDRVRQLMEAVGDHIRQEESTMFAAIRNNLSSDQSEQLATEFKAAKTRIQEKLGVVSESNA | not soluble |
| MKIFKFTPENNLFYGYILEDMKTGFNILREIMVEGYRPSIARLYDAEDGTQHFTHFADGKCVLIFMAEGNPRIAKVTGEGIAEIVARYPQCQRVDSKLIETWFNNLNWGPDKVAAERVQILKTGNMGFTTEVSGCWSCIHEIYESVINRIRTEFPHADDITMLGGHSSHSYQNGTNMYFVYDYNVVDCKPEEEIDKYHNPLNKIICEETIRLGGSMVHHHGIGKHRVHWSKLEHGSAWALLEGLKKQFDPNGIMNTGTIYPIEK | soluble |
| MRALIIVDVQNDFCEGGSLAVTGGAALARAISDYLAEAADYHHVVATKDFHIDPGDHFSGTPDYSSSWPPHCVSGTPGADFHPSLDTSAIEAVFYKGAYTGAYSGFEGVDENGTPLLNWLRQRGVDEVDVVGIATDHCVRQTAEDAVRNGLATRVLVDLTAGVSADTTVAALEEMRTASVELVCSS | soluble |
| MGSDKIHHHHHHMESLIESNINFSIFFYNPNIHPVKEYLIRKEENIRFAEKHNIPFIDADYDTDNWFARAKGMENEPERGIRCTMCFDMRFERTALYAYENGFSLISSSLGISRWKNMAQINDCGIRAASHYPDIQYWDYNWRKNGGSSRMIEISKREEFYQQEYCGCVYSLRDTNRWRMSNGRDRIKIGVKFYSNAMEND | not soluble |
| SGIVPQLQNIVSTVNLGCKLDLKTIALRARNAEYNPKRFAAVIMRIREPRTTALIFSSGKMVCTGAKSEEQSRLAARKYARVVQKLGFPAKFLDFKIQNMVGSCDVKFPIRLEGLVLTHQQFSSYEPELFPGLIYRMIKPRIVLLIFVSGKVVLTGAKVRAEIYEAFENIYPILKGFRKTT | soluble |
| MDHALFTHFVGRPRHCRLEMLILDEQVSKRSWDTTVYHRRRKHLPRRRAPCGPQRPAEIPKRRKKAAVLLFWHDLCWLFRRLFFPREDSEPLMSDPARSPEEEELEHHHHHH | not soluble |
